Reference: US20110110945A1, “Immunoglobulin Fusion Proteins and Methods of Making” (TransTech Pharma, Inc., priority 2007, published 2011)

How the values were obtained:
Details in all cases: ligand 5 micrograms per well; dilutions of initial fusion protein solution; FIG. 7
S100b = target: T1, S100b (Homo sapiens, UniProt P04271); assay: In vitro ligand binding assay (ELISA), immobilized S100b
T1 sequence (P04271 1-92): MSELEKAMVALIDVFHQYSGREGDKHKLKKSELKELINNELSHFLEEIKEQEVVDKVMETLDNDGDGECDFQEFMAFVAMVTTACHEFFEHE
Method: (§1) For example, the fusion protein may be used in a binding assay to identify potential ligands that bind to the non-immunoglobulin protein. In one example embodiment of such a binding assay, a known ligand may coated onto a solid substrate (e.g., Maxisorb plates) at a biologically relevant concentration (e.g., about 5 micrograms per well), where each well contains a total volume of about 100 microliters (μL). The plates may be incubated at 4° C. overnight to allow the ligand to bind to the substrate. Alternatively, shorter incubation periods at higher temperature (e.g., room temperature) may be used. After a period of time to allow for the ligand to bind to the substrate, the assay wells may be aspirated and a blocking buffer (e.g., 1% BSA in 50 mM imidizole buffer, pH 7.2) may be added to block nonspecific binding. […] The fusion protein bound to the immobilized ligand may be detected in a variety of ways. […] The bound complex may be detected by adding a substrate for the secondary antibody complex, e.g., the alkaline phosphatase substrate, para-nitrophenylphosphate (PNPP), and measuring conversion of PNPP to para-nitrophenol (PNP) as an increase in absorbance at 405 nm. […] In the absence of ligand (i.e., coating with only BSA) there was no increase in absorbance. The binding assay of the present invention may be used to quantify ligand binding. […]

[1] = target: T2, amyloid-beta (Amyloid Beta (1-40)) (Homo sapiens, UniProt P05067); assay: In vitro ligand binding assay (ELISA), immobilized amyloid-beta
T2 construct: Amyloid Beta (1-40) from Biosource; purchased Biosource
T2 sequence (P05067 672-711 limits assumed): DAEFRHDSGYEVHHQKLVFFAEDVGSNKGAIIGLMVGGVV
Method: as §1

amphoterin = target: T3, amphoterin (Homo sapiens, UniProt P09429); assay: In vitro ligand binding assay (ELISA), immobilized amphoterin
T3 sequence (P09429 1-215): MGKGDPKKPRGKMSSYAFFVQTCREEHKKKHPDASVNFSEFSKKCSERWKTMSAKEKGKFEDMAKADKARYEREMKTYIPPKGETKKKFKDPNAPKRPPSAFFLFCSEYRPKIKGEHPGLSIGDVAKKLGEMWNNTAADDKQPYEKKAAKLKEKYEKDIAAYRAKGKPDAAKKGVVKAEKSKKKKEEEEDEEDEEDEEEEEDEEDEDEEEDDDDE
Method: as §1

B1: TTP-3000: RAGE fusion protein: V domain of human RAGE (amino acids 1-136) linked to hinge-less CH2 and CH3 of human IgG1; SEQ ID NO: 17/19 (protein)
chain 1: MAAGTAVGAWVLVLSLWGAVVGAQNITARIGEPLVLKCKGAPKKPPQRLEWKLNTGRTEAWKVLSPQGGGPWDSVARVLPNGSLFLPAVGIQDEGIFRCQAMNRNGKETKSNYRVRVYQIPGKPEIVDSASELTAGPSVFLFPPKPKDTLMISRTPEVTCVVVDVSHEDPEVKFNWYVDGVEVHNAKTKPREEQYNSTYRVVSVLTVLHQDWLNGKEYKCKVSNKALPAPIEKTISKAKGQPREPQVYTLPPSRDELTKNQVSLTCLVKGFYPSDIAVEWESNGQPENNYKTTPPVLDSDGSFFLYSKLTVDKSRWQQGNVFSCSVMHEALHNHYTQKSLSLSPGK
chain 2: ENITARIGEPLVLKCKGAPKKPPQRLEWKLNTGRTEAWKVLSPQGGGPWDSVARVLPNGSLFLPAVGIQDEGIFRCQAMNRNGKETKSNYRVRVYQIPGKPEIVDSASELTAGPSVFLFPPKPKDTLMISRTPEVTCVVVDVSHEDPEVKFNWYVDGVEVHNAKTKPREEQYNSTYRVVSVLTVLHQDWLNGKEYKCKVSNKALPAPIEKTISKAKGQPREPQVYTLPPSRDELTKNQVSLTCLVKGFYPSDIAVEWESNGQPENNYKTTPPVLDSDGSFFLYSKLTVDKSRWQQGNVFSCSVMHEALHNHYTQKSLSLSPGK
modifications: synthetic three domain RAGE-Fc IgG fusion protein; synthetic three domain RAGE-Fc IgG fusion protein having signal sequence removed
specifically interact: binding to immobilized S100b (increase in absorbance at 405 nm) (S100b) | binding to immobilized amyloid-beta (increase in absorbance at 405 nm) [1] | binding to immobilized amphoterin (increase in absorbance at 405 nm) (amphoterin)
